According to US20050026839A1 (GENERAL HOSPITAL, published 2005):
Square brackets hold non-standard residues; d marks the D form. Ends that are not written are not given here. hArg = N=C(N)NCCCC[C@H](N)C(=O)O; Nle = CCCC[C@H](N)C(=O)O; Aib = CC(C)(N)C(=O)O

T1: wild-type human PTH/PTHrP receptor (hP1R-WT) (human, UniProt Q03431 27-593)
T1 sequence (looked up): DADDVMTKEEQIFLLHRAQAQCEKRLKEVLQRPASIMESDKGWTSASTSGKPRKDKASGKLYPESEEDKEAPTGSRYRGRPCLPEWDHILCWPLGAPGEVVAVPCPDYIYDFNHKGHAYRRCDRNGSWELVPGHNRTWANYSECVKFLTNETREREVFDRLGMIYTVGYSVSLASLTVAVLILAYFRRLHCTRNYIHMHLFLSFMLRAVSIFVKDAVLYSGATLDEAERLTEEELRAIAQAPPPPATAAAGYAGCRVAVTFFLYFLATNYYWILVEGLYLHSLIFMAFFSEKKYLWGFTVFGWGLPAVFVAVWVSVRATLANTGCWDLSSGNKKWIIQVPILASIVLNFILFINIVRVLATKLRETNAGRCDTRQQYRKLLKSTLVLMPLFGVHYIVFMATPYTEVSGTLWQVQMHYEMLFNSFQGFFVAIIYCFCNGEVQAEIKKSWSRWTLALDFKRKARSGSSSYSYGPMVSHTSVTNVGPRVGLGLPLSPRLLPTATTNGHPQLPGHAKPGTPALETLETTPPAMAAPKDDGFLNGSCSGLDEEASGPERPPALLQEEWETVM

T2: truncated human P1R deleted for residues (24-181) (hP1R-delNt) (human, UniProt Q03431 182-593)
T2 construct: whole, on cells; also called delNT receptor
T2 sequence (looked up): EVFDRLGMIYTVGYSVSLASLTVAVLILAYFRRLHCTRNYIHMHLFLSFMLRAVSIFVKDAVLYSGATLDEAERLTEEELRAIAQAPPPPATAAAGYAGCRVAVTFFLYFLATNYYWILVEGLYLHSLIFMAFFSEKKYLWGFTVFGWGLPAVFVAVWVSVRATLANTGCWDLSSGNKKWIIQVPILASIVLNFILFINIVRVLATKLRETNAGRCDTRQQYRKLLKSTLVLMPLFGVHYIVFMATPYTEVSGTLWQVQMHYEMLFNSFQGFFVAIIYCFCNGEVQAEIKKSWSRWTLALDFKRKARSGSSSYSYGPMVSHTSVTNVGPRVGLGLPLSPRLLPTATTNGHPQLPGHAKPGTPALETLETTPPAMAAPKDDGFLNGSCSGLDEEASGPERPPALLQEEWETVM

B1: [Aib^1,3,M]PTH(1-21) (peptide)
peptide: [Aib]V[Aib]EIQL[Nle]HQ[hArg]AKWLASVRRY-NH2
modifications: N-terminus assumed
SMILES: CCCC[C@H](NC(=O)[C@H](CC(C)C)NC(=O)[C@H](CCC(N)=O)NC(=O)[C@@H](NC(=O)[C@H](CCC(=O)O)NC(=O)C(C)(C)NC(=O)[C@@H](NC(=O)C(C)(C)N)C(C)C)[C@@H](C)CC)C(=O)N[C@@H](Cc1c[nH]cn1)C(=O)N[C@@H](CCC(N)=O)C(=O)N[C@@H](CCCCNC(=N)N)C(=O)N[C@@H](C)C(=O)N[C@@H](CCCCN)C(=O)N[C@@H](Cc1c[nH]c2ccccc12)C(=O)N[C@@H](CC(C)C)C(=O)N[C@@H](C)C(=O)N[C@@H](CO)C(=O)N[C@H](C(=O)N[C@@H](CCCNC(=N)N)C(=O)N[C@@H](CCCNC(=N)N)C(=O)N[C@@H](Cc1ccc(O)cc1)C(N)=O)C(C)C
notes: unlabeled peptide; also called 674 [Aib^1,3, M]PTH (1-21); 674 [Aib^1,3M]PTH(1-21)
B2: [Aib^1,3,M]PTH(1-14) (peptide)
peptide: [Aib]V[Aib]EIQLMHQ[hArg]AKW-NH2
modifications: N-terminus assumed
SMILES: CC[C@H](C)[C@H](NC(=O)[C@H](CCC(=O)O)NC(=O)C(C)(C)NC(=O)[C@@H](NC(=O)C(C)(C)N)C(C)C)C(=O)N[C@@H](CCC(N)=O)C(=O)N[C@@H](CC(C)C)C(=O)N[C@@H](CCSC)C(=O)N[C@@H](Cc1c[nH]cn1)C(=O)N[C@@H](CCC(N)=O)C(=O)N[C@@H](CCCCNC(=N)N)C(=O)N[C@@H](C)C(=O)N[C@@H](CCCCN)C(=O)N[C@@H](Cc1c[nH]c2ccccc12)C(N)=O
notes: also called 671 [Aib^1,3, M]PTH (1-14); 671 [Aib^1,3M]PTH(1-14)

Experiments:
[1] = biological target: T1, wild-type human PTH/PTHrP receptor …; assay: cell-based or functional assay
[2] = biological target: T2, truncated human P1R deleted for …; assay: competition binding, COS-7 cells expressing P1R-delNt
Procedure: These cells, as well as COS-7 cells and SaOS-2-B10 cells, were cultured at […] in T-75 flasks ([…]) in Dulbecco's modified Eagle's medium (DMEM) supplemented with fetal bovine serum (10%), penicillin G (20 units/ml), streptomycin sulfate (20 μg/ml) and amphotericin B (0.05 μg/ml) in a humidified atmosphere containing 5% CO₂. Stock solutions of EGTA/trypsin and antibiotics were from GIBCO; fetal bovine serum was from Hyclone Laboratories (Logan, Utah). […] All cells, in 24-well plates, were treated with fresh media and shifted to 33° C. for 12 to 24 h prior to assay.
Competition Binding. Binding reactions were performed with HKRK-B28 cells or in COS-7 cells in 24-well plates. […] The cells were subsequently lysed with 0.5 mL […] and counted for radioactivity. For each tracer and in each experiment, the non-specific binding was determined as the radioactivity that bound in the presence of the same unlabeled peptide at a concentration of 1 μM, and was ˜1% of total radioactivity added for each tracer. The maximum specific binding (B₀) was the total radioactivity bound in the absence of competing ligand, corrected for nonspecific binding, and for each tracer, ranged from 8% to 20% of the total radioactivity added. […]

[3] = biological target: T1, wild-type human PTH/PTHrP receptor …; assay: competition binding, 125I-[Aib1,3,M]PTH(1-21) tracer, COS-7 cells expressing hP1R-WT
Procedure: Competition Binding. Binding reactions were performed with HKRK-B28 cells or in COS-7 cells in 24-well plates. The cells were rinsed with 0.5 mL of binding buffer, and then treated successively with 100 μL binding buffer, 100 μL of binding buffer containing various amounts of unlabeled competitor ligand, and 100 μL of binding buffer containing ca. 100,000 cpm of ¹²⁵I-[M]PTH(1-21) or ¹²⁵I-[Aib^{1,3},M]PTH(1-21)} (ca. 26 fmol; final volume=300 μL). Incubations were 4 to 6 h at 4° C., at which time near equilibrium conditions were attained. Cells were then placed on ice, the binding medium was removed, and the monolayer was rinsed three times with 0.5 mL of cold binding buffer. The cells were subsequently lysed with 0.5 mL […] NaOH and counted for radioactivity. For each tracer and in each experiment, the non-specific binding was determined as the radioactivity that bound in the presence of the same unlabeled peptide at a concentration of 1 μM, and was ˜1% of total radioactivity added for each tracer. The maximum specific binding (B₀) was the total radioactivity bound in the absence of competing ligand, corrected for nonspecific binding, and for each tracer, ranged from 8% to 20% of the total radioactivity added. Nonlinear regression was used to calculate binding IC₅₀ values (see below). Scatchard transformations of homologous competition binding data derived from studies with 26 fmol of ¹²⁵I-[Aib^{1,3},M]PTH(1-21) were employed for estimations of apparent equilibrium dissociation constant (kDapps) and total number of ligand binding sites (Bₘₐₓ), assuming a single class of binding sites and equal affinities of the iodinated and non iodinated ligand.

Binder | cAMP EC50 [1] | cAMP EMax(obs.) [1] | fold difference in affinity against [Aib^1,3,M]PTH(1-14) [2] | IC50 [3] | fold stronger binding affinity than [M]PTH(1-14) [2]
B1 | 4.3 nM | 284 pmole/well | 50 fold | 28 nM | 
B2 | 1.1 nM | 278 pmole/well |  | 2250 nM | ~10 fold
